Experimental data from the supplement of paper PMC11908140.

B1: library; numbered along this chain (parent)
chain: MRKPRAAVGSGHRKQAASQEGRQKHAKNNSQAKPSACDGLARQPEEVVLQASVSSYHLFRDVAEVTAFRGSLLSWYDQEKRDLPWRRRAEDEMDLDRRAYAVWVSEVMLQQTQVATVINYYTGWMQKWPTLQDLASASLEEVNQLWAGLGYYSRGRRLQEGARKVVEELGGHMPRTAETLQQLLPGVGRYTAGAIASIAFGQATGVVDGNVARVLCRVRAIGADPSSTLVSQQLWGLAQQLVDPARPGDFNQAAMELGATVCTPQRPLCSQCPVESLCRARQRVEQEQLLASGSLSGSPDVEECAPNTGQCHLCLPPSEPWDQTLGVVNFPRKASRKPPREESSATCVLEQPGALGAQILLVQRPNSGLLAGLWEFPSVTWEPSEQLQRKALLQELQRWAGPLPATHLRHLGEVVHTFSHIKLTYQVYGLALEGQTPVTTVPPGARWLTQEEFHTAAVSTAMKKVFRVYQGQQPGTCMGSKRSQVSSPCSRKKPRMGQQVLDNFFRSHISTDAHSLNSAAQ

Variants of: B1
Test: 8OG:A repair function score (normalized; synonymous = 0, nonsense = -1) (normalized log-likelihood score); higher = more repair activity (WT-like)
Details: with 8OG:A DNA repair reporter (GFP) in HEK-293 MUTYH KO cells
How it was run: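 Per-tile Rosace fitness scores were converted to a normalized repair function score anchored on synonymous and nonsense distributions. That scale puts synonymous medians at 0 and nonsense medians at -1. Variants with starting counts under 300 counts per million were discarded. Input came from sorting viable mCherry+ MUTYH knockout HEK-293 cells, carrying lentiviral MUTYH cDNA NNN codon-scan libraries in 10 pg/ml doxycycline and an 8OG:A GFP repair reporter, into GFP+ and GFP− bins at 72 h, three replicates per tile, followed by tile amplicon sequencing.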
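Also: cells sorted at 72 h after reporter transfection.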

| Variant | 8OG:A repair function score |
| --- | --- |
| MRKPRAAVGSGHRKQAASQEGRQKHAKNNSQAKPSACDGLARQPEEVVLQASVSSYHLFRDVAEVTAFRGSLLSWYDQEKRDLPWRRRAEDEMDLDRRAYAVWVSEVMLQQTQVATVINYYTGWMQKWPTLQDLASASLEEVNQLWAGLGYYSRGRRLQEGARKVVEELGGHMPRTAETLQQLLPGVGRYTAGAIASIAFGQATGVVDGNVARVLCRVRAIGADPSSTLVSQQLWGLAQQLVDPARPGDFNQAAMELGATVCTPQRPLCSQCPVESLCRARQRVEQEQLLASGSLSGSPDVEECAPNTGQCHLCLPPSEPWDQTLGVVNFPRKASRKPPREESSAPCVLEQPGALGAQILLVQRPNSGLLAGLWEFPSVTWEPSEQLQRKALLQELQRWAGPLPATHLRHLGEVVHTFSHIKLTYQVYGLALEGQTPVTTVPPGARWLTQEEFHTAAVSTAMKKVFRVYQGQQPGTCMGSKRSQVSSPCSRKKPRMGQQVLDNFFRSHISTDAHSLNSAAQ [T346P] | -0.585 |
| MRKPRAAVGSGHRKQAASQEGRQKHAKNNSQAKPSACDGLARQPEEVVLQASVSSYHLFRDVAEVTAFRGSLLSWYDQEKRDLPWRRRAEDEMDLDRRAYAVWVSEVMLQQTQVATVINYYTGWMQKWPTLQDLASASLEEVNQLWAGLGYYSRGRRLQEGARKVVEELGGHMPRTAETLQQLLPGVGRYTAGAIASIAFGQATGVVDGNVARVLCRVRAIGADPSSTLVSQQLWGLAQQLVDPARPGDFNQAAMELGATVCTPQRPLCSQCPVESLCRARQRVEQEQLLASGSLSGSPDVEECAPNTGQCHLCLPPSEPWDQTLGVVNFPRKASRKPPREESSANCVLEQPGALGAQILLVQRPNSGLLAGLWEFPSVTWEPSEQLQRKALLQELQRWAGPLPATHLRHLGEVVHTFSHIKLTYQVYGLALEGQTPVTTVPPGARWLTQEEFHTAAVSTAMKKVFRVYQGQQPGTCMGSKRSQVSSPCSRKKPRMGQQVLDNFFRSHISTDAHSLNSAAQ [T346N] | -0.262 |
| MRKPRAAVGSGHRKQAASQEGRQKHAKNNSQAKPSACDGLARQPEEVVLQASVSSYHLFRDVAEVTAFRGSLLSWYDQEKRDLPWRRRAEDEMDLDRRAYAVWVSEVMLQQTQVATVINYYTGWMQKWPTLQDLASASLEEVNQLWAGLGYYSRGRRLQEGARKVVEELGGHMPRTAETLQQLLPGVGRYTAGAIASIAFGQATGVVDGNVARVLCRVRAIGADPSSTLVSQQLWGLAQQLVDPARPGDFNQAAMELGATVCTPQRPLCSQCPVESLCRARQRVEQEQLLASGSLSGSPDVEECAPNTGQCHLCLPPSEPWDQTLGVVNFPRKASRKPPREESSAVCVLEQPGALGAQILLVQRPNSGLLAGLWEFPSVTWEPSEQLQRKALLQELQRWAGPLPATHLRHLGEVVHTFSHIKLTYQVYGLALEGQTPVTTVPPGARWLTQEEFHTAAVSTAMKKVFRVYQGQQPGTCMGSKRSQVSSPCSRKKPRMGQQVLDNFFRSHISTDAHSLNSAAQ [T346V] | 0.0305 |
| MRKPRAAVGSGHRKQAASQEGRQKHAKNNSQAKPSACDGLARQPEEVVLQASVSSYHLFRDVAEVTAFRGSLLSWYDQEKRDLPWRRRAEDEMDLDRRAYAVWVSEVMLQQTQVATVINYYTGWMQKWPTLQDLASASLEEVNQLWAGLGYYSRGRRLQEGARKVVEELGGHMPRTAETLQQLLPGVGRYTAGAIASIAFGQATGVVDGNVARVLCRVRAIGADPSSTLVSQQLWGLAQQLVDPARPGDFNQAAMELGATVCTPQRPLCSQCPVESLCRARQRVEQEQLLASGSLSGSPDVEECAPNTGQCHLCLPPSEPWDQTLGVVNFPRKASRKPPREESSAKCVLEQPGALGAQILLVQRPNSGLLAGLWEFPSVTWEPSEQLQRKALLQELQRWAGPLPATHLRHLGEVVHTFSHIKLTYQVYGLALEGQTPVTTVPPGARWLTQEEFHTAAVSTAMKKVFRVYQGQQPGTCMGSKRSQVSSPCSRKKPRMGQQVLDNFFRSHISTDAHSLNSAAQ [T346K] | -0.886 |
| MRKPRAAVGSGHRKQAASQEGRQKHAKNNSQAKPSACDGLARQPEEVVLQASVSSYHLFRDVAEVTAFRGSLLSWYDQEKRDLPWRRRAEDEMDLDRRAYAVWVSEVMLQQTQVATVINYYTGWMQKWPTLQDLASASLEEVNQLWAGLGYYSRGRRLQEGARKVVEELGGHMPRTAETLQQLLPGVGRYTAGAIASIAFGQATGVVDGNVARVLCRVRAIGADPSSTLVSQQLWGLAQQLVDPARPGDFNQAAMELGATVCTPQRPLCSQCPVESLCRARQRVEQEQLLASGSLSGSPDVEECAPNTGQCHLCLPPSEPWDQTLGVVNFPRKASRKPPREESSAMCVLEQPGALGAQILLVQRPNSGLLAGLWEFPSVTWEPSEQLQRKALLQELQRWAGPLPATHLRHLGEVVHTFSHIKLTYQVYGLALEGQTPVTTVPPGARWLTQEEFHTAAVSTAMKKVFRVYQGQQPGTCMGSKRSQVSSPCSRKKPRMGQQVLDNFFRSHISTDAHSLNSAAQ [T346M] | -0.125 |
| MRKPRAAVGSGHRKQAASQEGRQKHAKNNSQAKPSACDGLARQPEEVVLQASVSSYHLFRDVAEVTAFRGSLLSWYDQEKRDLPWRRRAEDEMDLDRRAYAVWVSEVMLQQTQVATVINYYTGWMQKWPTLQDLASASLEEVNQLWAGLGYYSRGRRLQEGARKVVEELGGHMPRTAETLQQLLPGVGRYTAGAIASIAFGQATGVVDGNVARVLCRVRAIGADPSSTLVSQQLWGLAQQLVDPARPGDFNQAAMELGATVCTPQRPLCSQCPVESLCRARQRVEQEQLLASGSLSGSPDVEECAPNTGQCHLCLPPSEPWDQTLGVVNFPRKASRKPPREESSATAVLEQPGALGAQILLVQRPNSGLLAGLWEFPSVTWEPSEQLQRKALLQELQRWAGPLPATHLRHLGEVVHTFSHIKLTYQVYGLALEGQTPVTTVPPGARWLTQEEFHTAAVSTAMKKVFRVYQGQQPGTCMGSKRSQVSSPCSRKKPRMGQQVLDNFFRSHISTDAHSLNSAAQ [C347A] | -0.0315 |
